Experimental data from patent publication US20240382561A1, “GLUCOREGULATORY COMPOUND, COMPOSITION AND USES THEREOF” (THE HONG KONG POLYTECHNIC UNIVERSITY, priority 2021, published 2024).

Legend:
[1] = system: isolated pancreatic islet cells; experiment: Insulin secretion from mouse isolated pancreatic islets; type: cell-based; details: CYSTM1 1-1000 nM, 5.6 mM then 16.7 mM glucose, 45 min
Experimental: (§1) FIGS. 6A-6C show the change in insulin secretion from different pancreatic cells in a low (5.6 mM) and high (16.7 mM) glucose level treated by different concentrations of CYSTM1: FIG. 6A: MIN6 cells; FIG. 6B: β-TC-6 cells; FIG. 6C: mouse-isolated pancreatic islets (n=5-6 per cell type);
(§2) In this example, in vitro assays of insulin secretion in response to CYSTM1 treatment in low and high-glucose environments on the pancreatic cell lines (MIN6 and B-TC-6) and mouse isolated pancreatic islets were performed. Mouse insulinoma, MIN6 cells, were cultured in DMEM (Gibco) supplemented with 10% (v/v) FBS (Lonza), 100 U/mL penicillin and […], and 70 μM freshly added β-mercaptoethanol (Gibco) (37° C., 5% CO2). B-TC-6 cells were grown in RPMI 1640 medium (Gibco) containing 5.5 mM glucose and supplemented with 10% (v/v) FBS, 100 U/mL penicillin and […], and 2 mM L-glutamine. […] Following 45 min incubation of KRB solution, each well was removed and the insulin content of each sample was determined by a mouse insulin ELISA kit. The efficacy of CYSTM1 to stimulate insulin secretion was evaluated in each of the pancreatic cell lines: MIN6 cells (FIG. 6A), B-TC-6 cells (FIG. 6B), and isolated pancreatic islet cells (FIG. 6C).

[2] = system: 3T3-L1 adipocytes; experiment: 2-NBDG glucose uptake in 3T3-L1 adipocytes; type: cell-based; details: 3T3-L1 adipocytes, CYSTM1 1-1000 nM, 1 h
Experimental: (§3) To determine whether CYSTM1 can increase glucose uptake in adipocytes, in vitro assays of 2-NBDG uptake in response to CYSTM1 treatment and potential inhibitors in 3T3-L1 adipocytes and mouse primary adipocytes were performed. 3T3-L1 preadipocytes were maintained in Dulbecco's modified Eagle's medium (DMEM) supplemented with 10% fetal bovine serum. Two days after confluence, 3T3-L1 cells were induced to differentiation using the standard adipogenic cocktail (0.5 mM IBMX, 1 μM dexamethasone and 10 μg/ml insulin) that was applied for 4 days and followed by 10 μg/ml insulin treatment for additional 4 days. The culture medium was changed every other day. The differentiated cells were maintained in normal serum containing DMEM. Mouse primary adipocytes were isolated from 10 to 12-week-old male C57BL/6J mice using a collagenase digestion protocol as described, briefly, white fat pads were removed, minced and digested using collagenase for 60-90 min at 37° C. in Krebs-Ringers phosphate HEPES buffer (KRPH) (15 mM HEPES, pH 7.4, 118 mM NaCl, 4.8 mM KCl, 1.2 mM MgSO4, 1.3 mM CaCl2, 1.2 mM KHPO3, 0.1% BSA). The stromal vascular fraction was separated from the adipocytes and cultured using DMEM and differentiated the same as 3T3-L1 adipocytes as described above. […] NBDG uptake was measured using a fluorescent microplate reader (Thermo Scientific Varioskan LUX Multimode Microplate Reader).

[3] = system: high fat diet-induced obese (HFD) mice; experiment: Chronic daily oral gavage of CYSTM1 in high-fat diet-induced obese mice; type: in vivo, mouse
Experimental: In this example, 8-week-old male C57BL/6J mice fed with a high-fat diet (HFD) were treated daily with an oral gavage of recombinant CYSTM1 protein (1 mg/kg), and the control group of mice were gavaged with saline daily. CYSTM1 treatment was carried out after 8 weeks of HFD feeding (FIG. 4A).

[4] = system: MIN6 pancreatic beta cell; experiment: Insulin secretion in MIN6 cells with GLP-1R antagonist exendin (9-39); type: cell-based, mouse; details: CYSTM1 10 nM, exendin (9-39) 10 nM
[5] = system: STZ-induced diabetic male mice; experiment: Daily oral CYSTM1 in STZ-induced diabetic mice; type: in vivo, mouse; details: vs saline
Experimental: Turning to FIG. 7J, standard chow diet (STC) mice were injected with streptozotocin (STZ) to induce diabetes for five days and then treated with either CYSTM1 protein (1 mg/kg) or saline daily. The group of mice treated with saline were regarded as the control group.

[6] = system: MIN6 cells; experiment: Insulin secretion from MIN6 cells at low and high glucose; type: cell-based, mouse; details: CYSTM1 1-1000 nM, 5.6 mM or 16.7 mM glucose, 45 min
Experimental: as §1, §2

[7] = system: diet-induced obesity and diabetes mouse model; experiment: Acute glucose tolerance test after i.p. injection or oral gavage of recombinant CYSTM1 in high-fat diet mice; type: in vivo; details: 1 h before GTT, obese mice, vs PBS
Experimental: In this example, an acute intraperitoneal (i.p.) glucose tolerance test (GTT) was performed using different administration methods of delivering recombinant CYSTM1 proteins. 8-week-old male C57BL/6J mice fed a high-fat diet for 12 weeks (diet-induced obesity and diabetes mouse model) were treated with different concentrations of CYSTM1 through i.p. injection (FIG. 3A-3C) or oral administration (FIGS. 3D-3F) for 1 h following a GTT by intraperitoneal injections of […]. Circulating CYSTM1 and insulin levels were determined by enzyme-linked immunosorbent assay (ELISA) (ImmunoDiagnostics, Hong Kong), and the glucose level was determined by a glucometer (Roche Diabetes Care, Indianapolis, IN, USA). […] As human and mouse CYSTM1 share high identity (89.4%) and similarity (90.4%), and human CYSTM1 appears to also lower circulating glucose in the db/db mice (a genetic mouse model of obesity and diabetes), it could be expected that human CYSTM1 may also function similarly with respect to human circulating glucose in an obese, diabetic human subject.

[8] = system: B-TC-6 cells; experiment: Insulin secretion from B-TC-6 cells at low and high glucose; type: cell-based; details: CYSTM1 1-1000 nM, 5.6 mM or 16.7 mM glucose, 45 min
Experimental: as §1, §2

[9] = system: mouse primary adipocytes; experiment: 2-NBDG glucose uptake in mouse primary adipocytes; type: cell-based; details: mouse primary adipocytes, CYSTM1 1-1000 nM, 1 h
Experimental: as §3

[10] = system: db/db mice; experiment: Acute glucose tolerance test after i.p. injection of human CYSTM1 in db/db mice; type: in vivo, mouse; details: acute i.p. injection 1 mg/kg BW, vs PBS
[11] = i.p. injection of CYSTM1 (0.5 and 1 mg/kg BW)
[12] = oral gavage of CYSTM1 1 mg/kg BW

B1: cysteine rich transmembrane module containing 1 (protein, UniProt Q8K353 1-104, looked up)
Cysteine-rich and …: MNPENPPPYPGPGPTAPYPPYPQQPMGPMGPMGAPPPQGYPYPPPQGYPYQGYPQYGWQGGPQEPPKTTVYVVEDQRRDDLGPSTCLTACWTALCCCCLWDMLT
notes: recombinant mouse CYSTM1 protein, 104 amino acid long glucoregulatory peptide
insulin secretion [1]: concentration-dependent increase in insulin secretion
glucose (2-NBDG) uptake [2]: concentration-dependent increase
feeding blood glucose level ([3]; 1 mg/kg oral gavage once daily, HFD mice, vs saline): significantly reduced feeding blood glucose level
fasting insulin concentration ([3]; day 10, 1 mg/kg oral gavage once daily, HFD mice, vs saline): decreased level of fasting insulin concentration
glucose homeostasis by IPGTT ([3]; day 20, 1 mg/kg oral gavage once daily, vs control HFD-fed mice): better glucose homeostasis
insulin secretion induced by CYSTM1 in presence of exendin (9-39) [4]: not affected by the presence of exendin (9-39)
feeding blood glucose level ([5]; 1 mg/kg oral daily): significantly lower feeding blood glucose level
glucose regulation by IPGTT ([5]; day 15, 1 mg/kg oral daily): protects from STZ-induced glucose dysregulation
insulin secretion [6]: concentration-dependent increase in insulin secretion
circulating insulin [7, 11]: increase circulating insulin
glucose levels (GTT) [7, 11]: lower glucose levels
circulating insulin [7, 12]: increase circulating insulin
glucose levels (GTT) [7, 12]: lower glucose levels
insulin secretion [8]: concentration-dependent increase in insulin secretion
glucose (2-NBDG) uptake [9]: concentration-dependent increase

B2: cysteine rich transmembrane module containing 1 (protein, UniProt Q9H1C7 1-97, looked up)
Cysteine-rich and …: MNQENPPPYPGPGPTAPYPPYPPQPMGPGPMGGPYPPPQGYPYQGYPQYGWQGGPQEPPKTTVYVVEDQRRDELGPSTCLTACWTALCCCCLWDMLT
notes: human CYSTM1, 97 amino acid long peptide
glucose levels (GTT) [10]: lower glucose levels
